Test system: RNAi activity in 293T cells
Experiment: Modified pGL4.72[hRlucCP] vector luciferase assay of RNAi activity
Format: cell-based
Details: overexpression from pEGFP-C1, 10 nM vector-target RNAi, 48 hours, vs EGFP- and G3BP-overexpressing cells (FIG. 30)
Source text: Assays for measuring RNAi activity in a cell are available in the art. For example, psiCHECK™-1, psiCHECK™-2, and pGL4.72[hRlucCP]™ vector assay systems provide methods for the measurement of RNAi activity in a cell. In these assays systems, luciferase is used a primary reporter gene and a target sequence (i.e., the target of one or more RNAi molecules) is cloned a multiple cloning region located downstream of the luciferase translational stop codon. Initiation of the RNAi process towards the target gene results in the cleavage and subsequent degradation of the fusion mRNA encoded by the vectors (i.e., upon treatment of the transfected cell with a vector-target RNAi molecule). Measurement of decreased luciferase activity in the transfected cells following treatment with the vector-target RNAi indicates the activity of RNAi in the cell. […]
Additional experiments were performed to determine the effect of PARP13 knockdown on miRNA activity. […] In a second set of experiments, the ability of the vector-target RNAi to reduce the expression of luciferase was measured in 293T cells transfected with pGL4.72[hRlucCP]™ vector, 20 nM vector-target RNAi, and 20 nM of negative RNAi control for PARP13 siRNA (siNeg; AllStars Negative Control siRNA; Qiagen Catalog No. 1027280) or PARP13 siRNA (siPARP13; SEQ ID NO: 40) following treatment with 0 or 30 nM pateamine A for 2 hours. […]

B1: PARP13: PARP13 overexpressed from a pEGFP-C1 plasmid (protein)
chain: ADPEVCCFITKILCAHGGRMALDALLQEIALSEPQLCEVLQVAGPDRFVVLETGGEAGITRSVVATTRARVCRRKYCQRPCDNLHLCKLNLLGRCNYSQSERNLCKYSHEVLSEENFKVLKNHELSGLNKEELAVLLLQSDPFFMPEICKSYKGEGRQQICNQQPPCSRLHICDHFTRGNCRFPNCLRSHNLMDRKVLAIMREHGLNPDVVQNIQDICNSKHMQKNPPGPRAPSSHRRNMAYRARSKSRDRFFQGSQEFLASASASAERSCTPSPDQISHRASLEDAPVDDLTRKFTYLGSQDRARPPSGSSKATDLGGTSQAGTSQRFLENGSQEDLLHGNPGSTYLASNSTSAPNWKSLTSWTNDQGARRKTVFSPTLPAARSSLGSLQTPEAVTTRKGTGLLSSDYRIINGKSGTQDIQPGPLFNNNADGVATDITSTRSLNYKSTSSGHREISSPRIQDAGPASRDVQATGRIADDADPRVALVNDSLSDVTSTTSSRVDDHDSEEICLDHLCKGCPLNGSCSKVHFHLPYRWQMLIGKTWTDFEHMETIEKGYCNPGIHLCSVGSYTINFRVMSCDSFPIRRLSTPSSVTKPANSVFTTKWIWYWKNESGTWIQYGEEKDKRKNSNVDSSYLESLYQSCPRGVVPFQAGSRNYELSFQGMIQTNIASKTQKDVIRRPTFVPQWYVQQMKRGPDHQPAKTSSVSLTATFRPQEDFCFLSSKKYKLSEIHHLHPEYVRVSEHFKASMKNFKIEKIKKIENSELLDKFTWKKSQMKEEGKLLFYATSRAYVESICSNNFDSFLHETHENKYGKGIYFAKDAIYSHKNCPYDAKNVVMFVAQVLVGKFTEGNITYTSPPPQFDSCVDTRSNPSVFVIFQKDQVYPQYVIEYTEDKACVIS
With B1 the “decrease in the level of miRNA-mediated repression compared to control cells” value was 3 fold.

Reference: patent publication US8435961B2, “Methods and compositions for increasing the activity of inhibitory RNA” (Massachusetts Institute of Technology, priority 2009, dated 2013)
